This assay has as its target first Tudor domain of PHF20L1 (PHF20L1 Tudor1) (UniProt A8MW92). Briefly: NMR titration.
Sequence of UniProt A8MW92 (A8MW92 5-70): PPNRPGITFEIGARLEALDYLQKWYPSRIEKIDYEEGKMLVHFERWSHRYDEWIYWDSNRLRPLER

As for “K142 mono-methylated (K142me1) DNMT1 peptide”, the Kd amounted to 670 µM.

A word on the Kd: it is the free concentration of one partner at which half of the binding sites on the other are occupied at equilibrium, for simple one-to-one binding. Read a high Kd as lower affinity.

The record behind these values is doi:10.1101/2020.04.29.069500.
